B1: CHMP1B WT fused to the Gal4 DNA-binding domain, Q7LBR1 T178R; A181R; E184R (protein)
chain: MSNMEKHLFNLKFAAKELSRSAKKCDKEEKAEKAKIKKAIQKGNMEVARIHAENAIRQKNQAVNFLRMSARVDAVAARVQTAVTMGKVTKSMAGVVKSMDATLKTMNLEKISALMDKFEHQFETLDVQTQQMEDTMSSTTTLTTPQNQVDMLLQEMADEAGLDLNMELPQGQTGSVGRSVRSARQDELSQRLARLRDQV
B2: ULK3(MIT)2 (residues 277–449) (domain or fragment)
chain: GPHMSGESLGRATALVVQAVKKDQEGDSAAALSLYCKALDFFVPALHYEVDAQRKEAIKAKVGQYVSRAEELKAIVSSSNQALLRQGTSARDLLREMARDKPRLLAALEVASAAMAKEEAAGGEQDALDLYQHSLGELLLLLAAEPPGRRRELLHTEVQNLMARAEYLKEQVKMRES

Tests used:
[1] = target: T1, ULK3 fused to the VP16 activation domain, Q6PHR2; experiment: yeast two-hybrid (β-galactosidase activity); conditions: chain shown with the change;; parent: est. 0.66; read off a plot
T1 chain: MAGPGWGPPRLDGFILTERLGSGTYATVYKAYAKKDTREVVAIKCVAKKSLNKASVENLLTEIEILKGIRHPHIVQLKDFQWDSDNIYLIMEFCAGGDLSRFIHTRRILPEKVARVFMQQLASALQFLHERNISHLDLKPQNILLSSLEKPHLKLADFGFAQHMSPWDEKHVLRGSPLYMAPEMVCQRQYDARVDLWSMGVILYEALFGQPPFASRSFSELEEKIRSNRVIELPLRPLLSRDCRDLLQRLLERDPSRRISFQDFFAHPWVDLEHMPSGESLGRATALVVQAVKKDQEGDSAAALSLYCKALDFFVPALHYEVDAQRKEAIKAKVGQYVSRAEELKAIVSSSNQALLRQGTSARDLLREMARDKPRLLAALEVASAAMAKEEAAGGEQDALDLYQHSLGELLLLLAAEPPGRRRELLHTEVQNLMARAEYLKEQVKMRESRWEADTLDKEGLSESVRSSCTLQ

other ESCRT-III proteins = experiment: fluorescence polarisation; data not shown; other ESCRT-III proteins

Row | Binder | response [1] | Kd (other ESCRT-III proteins) [µM]
1 | B1 | 0.5 | –
2 | B2 | – | 100
